According to PMC3285612, “Simukunin from the Salivary Glands of the Black Fly Simulium vittatum Inhibits Enzymes That Regulate Clotting and Inflammatory Responses” (PLoS ONE, 2012):

Tests used:
[1] = target: T1, elastase (purified from human sputum) (human, UniProt P08246 30-267); test: SPR; kinetics: rSimukunin immobilised on a CM5 chip by amine coupling (475.3 RU); FXa 3.1-50 nM or elastase 0.45-3.75 nM injected for 180 s at 30 µl/minute, 25°C; HBS-P (10 mM Hepes pH 7.4, 150 mM NaCl, 0.005% P20); global fit to a 1:1 Langmuir model; conditions: both partners purified
T1 construct: elastase, human, purified from sputum; the discussion speaks of it as a component of neutrophil azurophil granules (neutrophil elastase); source: bought: Molecular Innovations, purified from human sputum (SPR); bought: Elastin Products (enzyme assays)
T1 sequence (looked up): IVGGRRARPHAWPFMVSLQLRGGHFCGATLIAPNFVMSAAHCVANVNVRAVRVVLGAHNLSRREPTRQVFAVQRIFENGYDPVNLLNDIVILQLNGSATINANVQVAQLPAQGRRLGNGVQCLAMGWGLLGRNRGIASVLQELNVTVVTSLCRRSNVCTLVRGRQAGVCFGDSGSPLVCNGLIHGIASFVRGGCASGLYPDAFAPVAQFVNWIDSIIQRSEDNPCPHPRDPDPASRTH

[2] = target: T1, elastase (purified from human sputum); test: enzyme inhibition assay (Ki from IC50 by Cheng and Prusoff); rSimukunin titrated against a constant concentration of enzyme, pre-incubated 5 min, fluorogenic peptidyl substrate 250 µM, 30°C; Ki calculated from the IC50 and the substrate's Km; estimated; conditions: both partners purified
cathepsin G [3] = target: T2, cathepsin G (human, UniProt P08311 21-244); test: as above; conditions: both partners purified
T2 construct: cathepsin G, human; source: bought: Enzo Life Sciences
T2 sequence (looked up): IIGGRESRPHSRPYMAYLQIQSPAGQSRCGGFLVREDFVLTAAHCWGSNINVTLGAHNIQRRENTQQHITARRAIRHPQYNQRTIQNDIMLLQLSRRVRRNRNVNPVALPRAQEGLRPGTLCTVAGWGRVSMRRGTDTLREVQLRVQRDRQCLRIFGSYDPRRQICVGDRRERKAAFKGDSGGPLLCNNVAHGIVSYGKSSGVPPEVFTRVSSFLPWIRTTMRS

[4] = target: T1, elastase (purified from human sputum); test: cell-based or functional assay
kallikrein = kallikrein (human, UniProt P03952 20-638); test: cell-based or functional assay
[5] = target: activated coagulation factor XI (FXIa) (human); test: cell-based or functional assay
plasmin = plasmin (human); test: cell-based or functional assay
cathepsin G [6] = target: T2, cathepsin G; test: cell-based or functional assay
[7] = target: trypsin (sequencing grade) (human, UniProt P07477 16-247); test: cell-based or functional assay
skin β-tryptase = skin β-tryptase (human, UniProt Q15661 19-275); test: cell-based or functional assay
skin β-tryptase, sequence (Q15661 19-275): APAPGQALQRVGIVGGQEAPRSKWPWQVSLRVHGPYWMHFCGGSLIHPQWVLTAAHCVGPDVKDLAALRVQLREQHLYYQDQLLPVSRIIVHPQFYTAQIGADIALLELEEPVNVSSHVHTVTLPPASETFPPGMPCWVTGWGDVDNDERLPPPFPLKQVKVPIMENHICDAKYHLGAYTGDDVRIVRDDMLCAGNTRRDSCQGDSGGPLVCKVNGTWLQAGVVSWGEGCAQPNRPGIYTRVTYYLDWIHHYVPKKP

activated coagulation factor XI (FXIa) (human), sequence (chain, as listed by the source, chain 1 of 2): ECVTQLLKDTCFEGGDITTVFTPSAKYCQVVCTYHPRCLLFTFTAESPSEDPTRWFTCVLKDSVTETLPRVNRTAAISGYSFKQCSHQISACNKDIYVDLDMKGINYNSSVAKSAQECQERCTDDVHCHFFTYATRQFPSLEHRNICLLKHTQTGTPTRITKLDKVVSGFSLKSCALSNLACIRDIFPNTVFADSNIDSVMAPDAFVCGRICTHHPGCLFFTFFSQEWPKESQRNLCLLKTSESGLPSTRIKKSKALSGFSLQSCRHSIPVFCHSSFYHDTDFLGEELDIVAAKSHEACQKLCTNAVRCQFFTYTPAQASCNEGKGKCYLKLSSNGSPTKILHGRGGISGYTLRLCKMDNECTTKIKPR
activated coagulation factor XI (FXIa) (human), sequence (chain, as listed by the source, chain 2 of 2): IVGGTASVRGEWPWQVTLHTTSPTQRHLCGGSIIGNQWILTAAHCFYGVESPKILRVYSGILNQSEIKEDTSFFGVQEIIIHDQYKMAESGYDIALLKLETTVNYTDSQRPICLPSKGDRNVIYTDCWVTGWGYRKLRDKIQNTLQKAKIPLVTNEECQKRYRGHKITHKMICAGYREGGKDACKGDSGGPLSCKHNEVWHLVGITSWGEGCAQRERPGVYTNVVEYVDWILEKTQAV
kallikrein, sequence (P03952 20-638): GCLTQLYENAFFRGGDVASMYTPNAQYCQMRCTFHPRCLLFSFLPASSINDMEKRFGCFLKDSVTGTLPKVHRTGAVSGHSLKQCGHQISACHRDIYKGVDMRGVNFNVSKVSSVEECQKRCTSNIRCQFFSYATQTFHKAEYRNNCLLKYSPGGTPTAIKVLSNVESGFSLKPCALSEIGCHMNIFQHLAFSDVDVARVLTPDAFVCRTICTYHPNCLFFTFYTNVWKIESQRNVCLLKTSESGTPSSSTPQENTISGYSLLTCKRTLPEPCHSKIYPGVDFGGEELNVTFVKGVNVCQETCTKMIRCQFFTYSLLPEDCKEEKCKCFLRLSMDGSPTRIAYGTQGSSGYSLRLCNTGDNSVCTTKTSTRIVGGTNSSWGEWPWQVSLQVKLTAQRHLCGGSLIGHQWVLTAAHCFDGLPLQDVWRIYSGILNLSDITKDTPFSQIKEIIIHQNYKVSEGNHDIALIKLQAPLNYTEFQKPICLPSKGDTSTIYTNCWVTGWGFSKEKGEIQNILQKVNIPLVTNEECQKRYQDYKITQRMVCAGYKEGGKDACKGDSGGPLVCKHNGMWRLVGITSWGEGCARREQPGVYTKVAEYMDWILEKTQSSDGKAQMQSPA
trypsin (sequencing grade), sequence (P07477 16-247): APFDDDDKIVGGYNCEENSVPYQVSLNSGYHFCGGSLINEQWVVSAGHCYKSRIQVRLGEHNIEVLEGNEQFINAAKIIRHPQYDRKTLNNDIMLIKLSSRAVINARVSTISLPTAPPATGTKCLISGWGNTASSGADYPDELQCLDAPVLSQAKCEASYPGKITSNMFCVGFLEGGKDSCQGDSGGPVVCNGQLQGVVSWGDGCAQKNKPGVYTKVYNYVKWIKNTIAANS
plasmin (human), sequence (P00747 20-580, chain 1 of 2): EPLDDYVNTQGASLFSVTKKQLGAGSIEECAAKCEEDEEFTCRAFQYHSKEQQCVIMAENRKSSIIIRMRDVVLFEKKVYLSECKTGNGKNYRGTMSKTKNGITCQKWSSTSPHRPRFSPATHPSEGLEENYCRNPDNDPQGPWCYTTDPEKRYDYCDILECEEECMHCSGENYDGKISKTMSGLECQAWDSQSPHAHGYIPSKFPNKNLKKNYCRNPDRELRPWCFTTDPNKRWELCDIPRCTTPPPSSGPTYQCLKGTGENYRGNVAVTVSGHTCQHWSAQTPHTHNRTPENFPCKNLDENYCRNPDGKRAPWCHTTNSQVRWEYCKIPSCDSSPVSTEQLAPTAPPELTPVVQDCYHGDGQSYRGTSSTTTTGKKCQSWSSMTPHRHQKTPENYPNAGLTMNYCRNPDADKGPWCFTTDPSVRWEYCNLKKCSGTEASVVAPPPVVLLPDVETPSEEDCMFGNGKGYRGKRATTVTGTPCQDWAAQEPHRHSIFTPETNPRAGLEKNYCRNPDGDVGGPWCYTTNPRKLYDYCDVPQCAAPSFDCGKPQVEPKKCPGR
plasmin (human), sequence (P00747 581-810, chain 2 of 2): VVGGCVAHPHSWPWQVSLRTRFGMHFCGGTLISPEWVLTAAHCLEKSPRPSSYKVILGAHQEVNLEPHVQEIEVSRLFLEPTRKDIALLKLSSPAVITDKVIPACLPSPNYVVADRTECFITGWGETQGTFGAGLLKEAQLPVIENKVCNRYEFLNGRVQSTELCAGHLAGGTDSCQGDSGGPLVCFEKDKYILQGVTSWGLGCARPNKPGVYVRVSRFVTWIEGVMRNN

B1: recombinant Simukunin (rSV-66) (natural protein, Simulium vittatum, UniProt B5M0W4 20-102, looked up)
chain: QENVCNLPVDEGVCRALFKRFYYEPATDSCKEFYYGGCEGNGNRFKSKKECILKCQKNKQLIKTRKRKPKKTTKPPIPIISLD
notes: SV-66 (Simukunin), Kunitz family salivary protein of the black fly Simulium vittatum; full-length ORF without signal peptide was cloned; numbers count on: the mature protein; pET-30 Ek/LIC vector; The purified protein ran as a doublet; also called rSimukunin; WT rSimukunin; source: E. coli BL21 (DE3), purified (Ni-NTA, RP-HPLC)
- Kd [1]: 0.4 nM
- koff [1]: 0.0173 s⁻¹
- kon [1]: 4.3e+07 M⁻¹ s⁻¹
- Ki [2]: ~0.65 nM
- Ki (cathepsin G [3]): 100 nM
- IC50 of inhibition of enzyme activity (fluorogenic peptidyl substrate, 250 µM); elastase 0.18 nM [4]: 4.9 nM
- IC50 of inhibition of enzyme activity (fluorogenic peptidyl substrate, 250 µM); kallikrein 0.08 nM (kallikrein): 91.8 nM
- IC50 of inhibition of enzyme activity (fluorogenic peptidyl substrate, 250 µM); Factor XIa 0.06 nM [5]: 56.7 nM
- IC50 of inhibition of enzyme activity (fluorogenic peptidyl substrate, 250 µM); plasmin 0.2 nM (plasmin): 32.2 nM
- IC50 of inhibition of enzyme activity (fluorogenic peptidyl substrate, 250 µM); cathepsin G 6.7 nM (cathepsin G [6]): 217 nM
- IC50 of inhibition of enzyme activity (fluorogenic peptidyl substrate, 250 µM); trypsin 0.1 nM [7]: 379 nM
- IC50 of inhibition of enzyme activity (fluorogenic peptidyl substrate, 250 µM); β-tryptase 0.01 nM (skin β-tryptase): 66.8 nM
